From article PMC6004067 (Genes & Development, 2018) come the findings set out here.

Common to all, as to settings: both partners purified
The target of assay [1] is T1, TATA-box-binding protein (TBP), full-length human (human, UniProt P20226 1-339).
T1 construct: human TBP, full length; Two preparations of free TBP are described (Flag/His double-tagged; GST-TBP cleaved with thrombin); also called wild-type TBP; source: E. coli BL21 (DE3), purified (Ni-NTA as Flag- and His-tagged protein, or cut with thrombin from GST-TBP)
T1 sequence (P20226 whole entry): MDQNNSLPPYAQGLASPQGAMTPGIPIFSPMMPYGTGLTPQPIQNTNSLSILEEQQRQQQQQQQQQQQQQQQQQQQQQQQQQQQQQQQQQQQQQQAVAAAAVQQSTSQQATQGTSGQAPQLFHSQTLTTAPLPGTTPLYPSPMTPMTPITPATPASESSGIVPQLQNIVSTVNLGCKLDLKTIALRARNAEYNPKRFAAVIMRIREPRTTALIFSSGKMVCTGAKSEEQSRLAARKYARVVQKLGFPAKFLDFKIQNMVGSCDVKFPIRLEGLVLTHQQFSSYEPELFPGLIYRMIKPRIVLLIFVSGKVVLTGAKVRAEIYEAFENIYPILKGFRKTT
Kind of assay: pull-down; Flag-tagged TFIIB or its mutants immobilized on Flag beads; TBP or SNAPc as analyte; buffer B2, 1 h at 4°C, four washes, Western blot. For orientation: Immunoblotting shows a protein as a band on a membrane.

Assay [2] concerns the target T2, GST-TBP, GST-tagged full-length human TBP (human, UniProt P20226 1-339).
T2 construct: human TBP, full length
Kind of assay: pull-down; GST pull-down: GST-TBP, GST-TFIIB or TBP fragments on glutathione beads; analytes in buffer B2 (150 mM NaCl), 1 h at 4°C, four washes, Western blot.

Assay [3] has as its target T1, TATA-box-binding protein (TBP), …. The description is as above.

T2 sequence (P20226 whole entry): as above

B1: TFIIB, full-length human, Flag- and His-tagged (natural protein, UniProt Q00403 1-316, looked up)
chain: MASTSRLDALPRVTCPNHPDAILVEDYRAGDMICPECGLVVGDRVIDVGSEWRTFSNDKATKDPSRVGDSQNPLLSDGDLSTMIGKGTGAASFDEFGNSKYQNRRTMSSSDRAMMNAFKEITTMADRINLPRNIVDRTNNLFKQVYEQKSLKGRANDAIASACLYIACRQEGVPRTFKEICAVSRISKKEIGRCFKLILKALETSVDLITTGDFMSRFCSNLCLPKQVQMAATHIARKAVELDLVPGRSPISVAAAAIYMASQASAEKRTQKEIGDIAGVADVTIRQSYRLIYPRAPDLFPTDFKFDTPVDKLPQL
notes: human TFIIB, full length; also called Flag-tagged TFIIB; wild-type TFIIB; source: E. coli BL21 (DE3), purified (Ni-NTA)
As to B1, the binding result in assay [1] and in assay [2] was “binds” throughout.

B2: TFIIB R169E, Flag-tagged (natural protein, human, UniProt Q00403 1-316, looked up)
chain: MASTSRLDALPRVTCPNHPDAILVEDYRAGDMICPECGLVVGDRVIDVGSEWRTFSNDKATKDPSRVGDSQNPLLSDGDLSTMIGKGTGAASFDEFGNSKYQNRRTMSSSDRAMMNAFKEITTMADRINLPRNIVDRTNNLFKQVYEQKSLKGRANDAIASACLYIACEQEGVPRTFKEICAVSRISKKEIGRCFKLILKALETSVDLITTGDFMSRFCSNLCLPKQVQMAATHIARKAVELDLVPGRSPISVAAAAIYMASQASAEKRTQKEIGDIAGVADVTIRQSYRLIYPRAPDLFPTDFKFDTPVDKLPQL
notes: human TFIIB with a single R169E substitution; Probably made as the full-length parent
B2: the binding result in assay [1] is “binds”.

B3: TFIIB R169E/K188E, Flag-tagged (natural protein, human, UniProt Q00403 1-316, looked up)
chain: MASTSRLDALPRVTCPNHPDAILVEDYRAGDMICPECGLVVGDRVIDVGSEWRTFSNDKATKDPSRVGDSQNPLLSDGDLSTMIGKGTGAASFDEFGNSKYQNRRTMSSSDRAMMNAFKEITTMADRINLPRNIVDRTNNLFKQVYEQKSLKGRANDAIASACLYIACEQEGVPRTFKEICAVSRISEKEIGRCFKLILKALETSVDLITTGDFMSRFCSNLCLPKQVQMAATHIARKAVELDLVPGRSPISVAAAAIYMASQASAEKRTQKEIGDIAGVADVTIRQSYRLIYPRAPDLFPTDFKFDTPVDKLPQL
notes: human TFIIB with the double R169E/K188E substitution; Probably made as the full-length parent; also called double substitution
As for B3, the binding result in assay [1] is listed as “binds”.

B4: GST-TFIIB (natural protein, human, UniProt Q00403 1-316, looked up)
chain: MASTSRLDALPRVTCPNHPDAILVEDYRAGDMICPECGLVVGDRVIDVGSEWRTFSNDKATKDPSRVGDSQNPLLSDGDLSTMIGKGTGAASFDEFGNSKYQNRRTMSSSDRAMMNAFKEITTMADRINLPRNIVDRTNNLFKQVYEQKSLKGRANDAIASACLYIACRQEGVPRTFKEICAVSRISKKEIGRCFKLILKALETSVDLITTGDFMSRFCSNLCLPKQVQMAATHIARKAVELDLVPGRSPISVAAAAIYMASQASAEKRTQKEIGDIAGVADVTIRQSYRLIYPRAPDLFPTDFKFDTPVDKLPQL
notes: TFIIB fused to GST
For B4, in assay [3], the binding result is reported as “binds”.
